Entries after “also recorded” stand apart in the source; their conditions may differ.
Experiments:
OVCAR8 xenografts [1] = assay: Intraperitoneal ovarian cancer xenograft growth and metastasis; assay type: in vivo, mice; conditions: for Total intraperitoneal tumor burden: between the three groups
Protocol: Permission to perform animal experiments was obtained from the Institutional Animal Care and Use Committee (IACUC) for Baylor College of Medicine. Eight-week female athymic (Foxn1^nu/nu) mice were purchased from the National Cancer Institute-Charles River and maintained on a standard diet ad lib. Each animal was inoculated intraperitoneally with 2.5×10^6 cells stably transfected with vector driving miR-520h, a non-targeting miRNA control or empty vector. Expression of miR-520h was measured in cell lines using Taqman assays immediately prior to inoculation. Tumor xenografts were followed weekly for tumor progression or regression using the Image Station In-Vivo FX system (Kodak Molecular Imaging Systems, New Haven, Conn.) using endogenous RFP encoded by the pLemiR vector as a tag. At each time point, mice were anesthetized with isoflurane and placed in an imaging chamber, after which, fluorescent intensity images with x-ray overlay were obtained and analyzed. At the completion of the study, mice were euthanized after sedation under isoflurane (Abbott Laboratories, North Chicago, Ill.). For experiments involving treatment, cisplatin was administered at 5 mg/kg to mice by tail vein injection weekly for 4 weeks, after which, 1.5 mg/kg was administered biweekly. Tumor volume and distribution for all animals in each experiment were documented and correlated with imaging results.
The in vitro observations indicate that miR520g/h and/or miR-520a alter the proliferations of established ovarian cancer cell lines and in some embodiments are reasonably expected to promote their growth and metastasis in vivo. The inventors utilized xenograft models to characterize this embodiment. Foxn1^nu/nu mice were implanted subcutaneously or intraperitoneally with 2.5 million cells stably transfected with miR-520g/h, non-silencing microRNA control or empty vector alone. […] This difference was documented not only when tumor burden was measured according to the number and size of RFP active tumors that met imaging thresholds, but could also directly measured at necropsy (FIG. 5F). […]

[2] = test system: ovarian cancer cell lines; assay: Cisplatin IC50 in multiple ovarian cancer cell lines; assay type: cell-based, human; conditions: OVCAR8 and SKOV3ip1 cells, p<0.001
Protocol: Established ovarian cancer cell lines were obtained from the ATCC (OVCAR8, OVCAR5) and the University of Texas M.D. Anderson Cancer Center (HEYA8, SKOV3ip1). All cell lines were maintained at 37° C. in RPMI 1640 media (Invitrogen, Carlsbad, Calif.) supplemented with 10% fetal bovine serums (Hyclone, Logan, Utah) and 1% penicillin/streptomycin (Gibco, Carlsbad, Calif.). MicroRNA mimics and mimic controls (Dharmacon, Lafayette, Colo.) were transiently transfected into actively growing cultures using Lipofectamine 2000 (Invitrogen, Carlsbad, Calif.). After a 24-hour incubation, transfected cultures were washed, passaged and seeded into 96 well plates. Proliferation and apoptosis were measured at 72, 96 and 120 hours after transfection using standard assays (Cell Titer 96 Aqueous One; Caspase Glo 3/7; Promega, Madison, Wis.). pLemiR expression vectors (Open Biosystems/Thermo, Huntsville, Ala.) were prepared according to manufacturer's instructions and transfected into cells using Fugene 6 (Roche, Indianapolis, Ind.). Following transfection, stable clones were selected using puromycin (Invitrogen) at doses optimized for each line. […] Viability was assessed across a clinically relevant range of cisplatin concentrations using an MTS assay (Promega). […]

OVCAR8 xenografts [3] = assay: Subcutaneous ovarian cancer xenograft; assay type: in vivo, mice; conditions: subcutaneous inoculation vs non-targeting control or empty vector
HEY cells = assay: Apoptosis assay (Caspase Glo 3/7); assay type: cell-based, human; conditions: mimic transfection
Protocol: (§1) Established ovarian cancer cell lines were obtained from the ATCC (OVCAR8, OVCAR5) and the University of Texas M.D. Anderson Cancer Center (HEYA8, SKOV3ip1). All cell lines were maintained at 37° C. in RPMI 1640 media (Invitrogen, Carlsbad, Calif.) supplemented with 10% fetal bovine serums (Hyclone, Logan, Utah) and 1% penicillin/streptomycin (Gibco, Carlsbad, Calif.). MicroRNA mimics and mimic controls (Dharmacon, Lafayette, Colo.) were transiently transfected into actively growing cultures using Lipofectamine 2000 (Invitrogen, Carlsbad, Calif.). After a 24-hour incubation, transfected cultures were washed, passaged and seeded into 96 well plates. Proliferation and apoptosis were measured at 72, 96 and 120 hours after transfection using standard assays (Cell Titer 96 Aqueous One; Caspase Glo 3/7; Promega, Madison, Wis.). pLemiR expression vectors (Open Biosystems/Thermo, Huntsville, Ala.) were prepared according to manufacturer's instructions and transfected into cells using Fugene 6 (Roche, Indianapolis, Ind.). Following transfection, stable clones were selected using puromycin (Invitrogen) at doses optimized for each line. Rates of proliferation and apoptosis were examined in stable transfectants 24, 48, 72 and 96 hours after selected cells had been passaged and dispensed into 96 well plates. Viability was assessed across a clinically relevant range of cisplatin concentrations using an MTS assay (Promega). Cisplatin was obtained from Teva Pharmaceuticals (Irvine, Calif.).

OVCAR8 cells [4] = assay: Apoptosis assay (Caspase Glo 3/7); assay type: cell-based, human
Protocol: as §1

SKOV3ip1 cells = assay: Apoptosis assay (Caspase Glo 3/7); assay type: cell-based, human
Protocol: as §1

HEYA8 cells = assay: Apoptosis assay (Caspase Glo 3/7); assay type: cell-based, human; conditions: HEYA8, acute mimic transfection
Protocol: as §1

OVCAR5 = assay: Apoptosis assay (Caspase Glo 3/7); assay type: cell-based, human; conditions: OVCAR5, mimic transfection
Protocol: as §1

lin28A/B = assay: Stemness gene expression in media that induce spheroid formation; assay type: cell-based, human; conditions: OVCAR8 and SKOV3ip1
OVCAR8 cells [5] = assay: Spheroid formation; assay type: cell-based, human; conditions: cells stably expressing mimics
CHK2 = assay: qPCR gene response to cisplatin in OVCAR8 cells; assay type: cell-based, human; conditions: OVCAR8 stable clones vs non-silencing control
Protocol: (§2) Total RNA was extracted from cell pellets using the mirVana miRNA extraction kit (Ambion, Austin, Tex.) according to the manufacturer's instructions. Levels of microRNA expression were examined using Mature MicroRNA Taqman assays (Applied Biosystems, Foster City, Calif.) using U6 as a control. For all gene expression assays, cDNA was prepared using qScript cDNA supermix (Quanta Biosciences, Gaithersburg, Md.). TaqMan gene expression assays (Applied Biosystems) were used to measure expression of specific target genes according to the manufacturer's instructions. All reactions were performed in triplicate using OneStepPlus real time PCR system (Applied Biosystems). All qPCR results are reported using the ΔΔCT method (17).

CASP7 = assay: qPCR gene response to cisplatin in OVCAR8 cells; assay type: cell-based, human; conditions: OVCAR8 stable clones vs non-silencing control
Protocol: as §2

CDC25c = assay: qPCR gene response to cisplatin in OVCAR8 cells; assay type: cell-based, human; conditions: OVCAR8 stable clones vs non-silencing control
Protocol: as §2

BRCA1 = assay: qPCR gene response to cisplatin in OVCAR8 cells; assay type: cell-based, human; conditions: OVCAR8 stable clones vs non-silencing control
Protocol: as §2

CHK1 = assay: qPCR gene response to cisplatin in OVCAR8 cells; assay type: cell-based, human; conditions: OVCAR8 stable clones vs non-silencing control
Protocol: as §2

B1: hsa-mir-520h MI0003175 (nucleic acid, listed as Homo sapiens)
chain: UCCCAUGCUGUGACCCUCUAGAGGAAGCACUUUCUGUUUGUUGUCUGAGAAAAAACAAAGUGCUUCCCUUUAGAGUUACUGUUUGGGA
modifications: expressed or natural sequence
notes: synthetic mimic or stably expressed from pLemiR vector; written miR-520g/h interchangeably
- Number and size of intraperitoneal implants (OVCAR8 xenografts [1]; OVCAR8 cells stably expressing the microRNA, intraperitoneal, no cisplatin, vs non-silencing control or empty vector, listed as miR-520g/h): larger number of smaller xenografts; also recorded: large number of smaller implants
- Total intraperitoneal tumor burden (OVCAR8 xenografts [1]): did not differ significantly
- Total intraperitoneal tumor burden (OVCAR8 xenografts [1]; listed as miR-520g/h): did not differ
- Reduction of IC50 for cisplatin [2]: ≤ 4 fold
- Implant size total tumor burden (OVCAR8 xenografts [3]): significantly smaller
- Apoptosis (HEY cells): no impact
- Caspase 3/7 expression (OVCAR8 cells [4]; OVCAR8 clones stably expressing the microRNA, no cisplatin): inhibited
- Apoptosis in presence of cisplatin (OVCAR8 cells [4]; OVCAR8 stable clones, cisplatin up to 10 μg/mL, listed as miR-520g/h): significantly decreased; also recorded: significantly lower rates of apoptosis
- Apoptosis (caspase 3/7) (SKOV3ip1 cells; SKOV3ip1, acute mimic transfection, no cisplatin): decreasing apoptosis
- Caspase 3/7 expression (SKOV3ip1 cells; SKOV3ip1 clones stably expressing the microRNA, no cisplatin): inhibited
- Apoptosis in presence of cisplatin (SKOV3ip1 cells; SKOV3ip1 stable clones, cisplatin treatment): significantly increased
- Apoptosis (HEYA8 cells): increase rates of apoptosis
- Apoptosis (OVCAR5): no impact
- Spheroid-media-induced expression of stemness genes (lin28A/B) (lin28A/B): eliminates increased expression
- Capacity to form spheroids (OVCAR8 cells [5]): decreased capacity to form spheroids
- CHK2 expression response to cisplatin (CHK2): blunts the responses
- Caspase 7 expression response to cisplatin (CASP7): targeted; also recorded: blunts the responses
- Caspase 7 expression response to cisplatin (CASP7; listed as miR-520g/h): significantly less
- CDC25C expression response to cisplatin (CDC25c): blunts the responses
- BRCA1 expression response to cisplatin (BRCA1): blunts the responses
- BRCA1 expression response to cisplatin (BRCA1; listed as miR-520g/h): significantly less
- CHK1 expression response to cisplatin (CHK1): inhibited; also recorded: blunts the responses

Source: patent US9758785B2, “miR-520 microRNAs sensitize cancers to platinum-based therapy” (BAYLOR COLLEGE OF MEDICINE, priority 2012, dated 2017)
